Laboratory results taken from the RNAGym collection of RNA variant scans (doi:10.1073/pnas.2313332121).

B1: TPR t1 (parent)
chain: GACCAAUCUGCCCUCAGAGCUCGAGAACAUCUUCGGAUGCAGAGGAGGCAGGCUUCGGUGGCGCGAUAGCGCCAACGUCCUCAACCUCCAAUGCAUCCCACCACAUGAUGAUGCCUGAAGAGCCUUGGUUUUUUG

Variants of: B1
Experiment: polymerase ribozyme fitness, log enrichment relative to wild type (log ratio); higher = more active; in vitro selection for triplet polymerase activity
Procedure, shortened: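 Mutant libraries of each subunit of a heterodimeric triplet polymerase ribozyme were built by PCR and transcribed. Each library went through one round of in vitro selection in triplicate: annealing with biotinylated primer, partner subunit and triplets, frozen incubation at −7 °C, gel excision of extended constructs, streptavidin-bead capture and RT-PCR. Input and output libraries were Illumina-sequenced; only genotypes with ≥10 input reads and ≥1 read per output were kept. Fitness is log2(genotype enrichment/wild-type enrichment), using inverse-variance-weighted replicate averages.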

Row | Variant | polymerase ribozyme fitness (log ratio)
1 | GUCCAAUCUGCCCUCAGAGCUCGAGAACAUCUUCGGAUGCAGAGGAGGCAGGCUUCGGUGGCUCGAUAGCGCCAACGUCCUCAACCUCCAAUGCAUCCCACCACAUGAUGAUGCCUGAAGAGCCUUGGUUUUUUG [A2U G63U] | -4.25
2 | GUCCAAUCUGCCCUCAAAGCUCGAGAACAUCUUCGGAUGCAGAGGAGGCAGGCUUCGGUGGCGCGAUAGCGCCAACGUCCUCAACCUCCAAUGCAUCCCACCACAUGAUGAUGCCUGAAGAGCCUUGGUUUUUUG [A2U G17A] | -5.45
3 | GUCCAAUCUGCCCUCAGAGCUCGAGAACAUCUUCGGAUGCAGAGGAGGCAGGCUUCGGUGGCGCGAUAUCGCCAACGUCCUCAACCUCCAAUGCAUCCCACCACAUGAUGAUGCCUGAAGAGCCUUGGUUUUUUG [A2U G69U] | -1.7
4 | GUCCAAUCUGCCCUCAGAGCUCGAGAACAUCUUCGGAUGCAGAGGAGGCAGGCUUCGGUGGCGCGAUAACGCCAACGUCCUCAACCUCCAAUGCAUCCCACCACAUGAUGAUGCCUGAAGAGCCUUGGUUUUUUG [A2U G69A] | -4.39
5 | GUCCAAUCUGCCCUCAGAUCUCGAUGUCAUCUUCGGAUGCAGAGGAGGCAGGCUUCGGUGGCGCGAUAGCGCCAACGUCCUCAACCUCCAAUGCAUCCCACCACAUGAUGAUGCCUGAAGAGCCUUGGUUUUUUG [A2U G19U G25U A26G A27U] | -6.04
6 | GUCCAAUCUGCCCUCAGAGCUCGAGAACAUCUUCGGAUGCAGAGGAGGCAGGCUUCGGUGGCGCGAUAGCGCCAACGUCCUCAACCUCCAAUUCAUCCCACCACAUGAUGAUGCCUGAAGAGCCUUGGUUUUUUG [A2U G93U] | -2.62
7 | GUCCAAUCUGCCCUCAGAGCUCGAGAACAUCUUCGGAUGCAGAGGAGGCAGGCUUCUGUGGCGCGAUAGCGCCAACGUCCUCAACCUCCAAUGCAUCCCACCACAUGAUGAUGCCUUAAGAGCCUUGGUUUUUUG [A2U G57U G117U] | -5.98
8 | GUCCAAUCUUCCCUGAGAGCUCGAGAACAUCUUCGGAUGCAGAGGAGGCAGGCUUCGGUGGCGCGAUAUCGCCAACGUCCUCAACCUCCAAUGCAUCCCACCACAAGAUGAUGCCUGAAGAGCCUUGGUUUUUUG [A2U G10U C15G G69U U106A] | -0.732
9 | GUCCAACCUGCCCUCAGAGCUCGAGAACAUCUUCGGAUGCAGACGAGGCAGCCUUAGGUGGCGCGAUAGCGCCAACGUCCUCAACCUCCAAUGCAUCCCACCACAUGAUGAUGCCUGAAGAGCCUUGGUUUUUUG [A2U U7C G44C G52C C56A] | -4.24
10 | GUCCAAUCUUCCCUCAGAGCUCGAGAACAUCUUCGGAUGCAGAGGAGGCAGGCUUCGGUGGCGCGAUAGCGCCAACGUCCUCAACCUCCCAUGCAUCCCACCACAUGAUGAUGCCUGAAGAACCUUGGUUUUUUG [A2U G10U A90C G122A] | -3.13
11 | GUCCAAUCUGCCCUCACAGCUCGAGUACAUCUUCGGAUACAGAGGAGGCAGGCUUCGGGGUCGCGAUAGCGCCAACGUCCUCGACCUCCAAUGCAUCCCACCACAUGAUGAUGCUUGAAGAGCCUUGGUUUUUUG [A2U G17C A26U G39A U59G G61U A83G C115U] | -6.19
12 | GUCCAAUCUGCCCUCAGAGCUCGAGAACAUCUUCGGAUGCAGAGGAGGCAGGCUUCGGUGGCGCGAUAGCGCCAACGUCCUCAACCUCCAAUGCAUCCCACCACAUGAUGAUGCCUGAAUAGCCUUGGUUUUUUG [A2U G120U] | -1.32
13 | GUCCAAUCUGCCCUCAGAGCUCGAGAACAUCUUCGGAUGCAGAGGAGGCAGGCUUCGGUGGCGCGAUAGCGCCAACGUCCUCAACCUCCAAUGCAUCCCACCACAUGAUGAUGCCUGAACAGCCUUGGUUUUUUG [A2U G120C] | -1.67
14 | GUCCAAUCUGCCCUCAAAGCUCGAGAAUAUCUUCGGAUGCAGUGGAGGCAGGCUUCGGUGCCGCGAUAGCGCCAACGUCCUCAACCUCCAAUGCAUCCCACCACAUGAUAAUGCCUGAAGAGCCUUGGUUUUUUG [A2U G17A C28U A43U G61C G110A] | -6.04
15 | GUCCAAUCUGCCCUCAGAGCUCGAGAACAUCUUCGGAUGCAGAGGAGGCAGGCUUCGGUGCCGCGAUAGCGCCAACGUCCUCAACCUCCAAUGCAUCCCACCACAUGAUGAUGCCUGAAGAGCCUUGGUUUUUUG [A2U G61C] | -3.94
16 | GUCCAAUCUGCCCACAGAGCUCGAGAACAUCUUCGGAUGCAGAGGAGGCAGGCUUCGGUGGCGCGAUAUCGCCAACGUCCUUAACCUCCAAUGCAUCCCACCACAUGAUGAUGCCUGACUAGCCUUGGUUUUUUG [A2U U14A G69U C82U A119C G120U] | -2.15
17 | GUCCAAUCUGCCCUCAGAGCUCGAGAACAUCUUCGGAUGCAGAGGAGGCAGCCUUCGGUGGCGCGAUAGCGCCAACGUCCUCAACCUCCAAUGCAUCCCACCACAUGAUGAUGCCUGAAGAGCCUUGGUUUUUUG [A2U G52C] | -3.28
18 | GUCCAAUCUGCCCUCAGAGCUCUAGAACAUCUUCGGAUGCAGAGGAGGCAGGCUUCGGUUGCGCGAUAGCGCCAACGUUCUCAACCUCCAAUGCAUCCCACCACAUGAUAAUGCCUGAAGAGCCUUGGUUUUUUG [A2U G23U G60U C79U G110A] | -6
19 | GUCCAAUCUGCCCUCAGAGCUCGAGAACAUCUUCGGAUGCAGAGGAGGCAGGCUUCGGUGGCGCGAUAGCUCCAACGUCCUCAACCUCCAAUGCAUCCCACCACAUGAUGAUGCCUGAAGAGCCUUGGUUUUUUG [A2U G71U] | -2.05
20 | GUCCAAUCUGCCCUCAGAGCGCGAGAACAUCUUCGGAUGCAGAGGAGGCAGGUUUCGCUGGCGCGAUAGCGUCAACGUCCUCAACCUCCAAUGCAUCCCACCACAUGAUGAUGCCUGAAGAGCCUUGGAUUUUUG [A2U U21G C53U G58C C72U U129A] | -1.46
21 | GUCCAAUCUGCCCUCAGAGCUCGAGAACAUCUUCGGAUGCAGAGAAGGCAGGCUUCGGUGGUGCGAUAGCGCCAACGUCCUCAACCUCCAAUGCAUCCCACCACAUGAUGAUGCUUGAAGAGCCUUGGUUUUAUG [A2U G45A C62U C115U U133A] | -2.99
